Data as given in PMC2795851.
“And” between values parts separate entries of the source, which are not always exact repeats. Equal entries are not always repeated.

What follows are substances tested against sfpCHIR-AB1, soluble fusion protein of the extracellular region of CHIR-AB1 and human IgG-Fc (chicken) (assay: SPR; 90RU of purified sfpCHIR-AB1 immobilised on a CM5 sensor surface; purified IgY-Fc (Fcυ2–4) mutants 25–400 nM flowed over; Biacore 3000; 1:1 binding model).

Ka | koff | kon | Substance
9.5e+07 M⁻¹ | 0.0044 s⁻¹ | 420000 M⁻¹ s⁻¹ | chicken IgY-Fc (Fcυ2–4) S346D/C347P/S348R/P349G (domain or fragment)
1.8e+08 M⁻¹ | 0.0021 s⁻¹ | 380000 M⁻¹ s⁻¹ | chicken IgY-Fc (Fcυ2–4) E437H/L440R (domain or fragment)
1.1e+08 M⁻¹ | 0.0015 s⁻¹ | 170000 M⁻¹ s⁻¹ | chicken IgY-Fc (Fcυ2–4) H495E (domain or fragment)
1.8e+08 M⁻¹ | 0.0013 s⁻¹ | 220000 M⁻¹ s⁻¹ | chicken IgY-Fc (Fcυ2–4) R496E (domain or fragment)
2.1e+08 M⁻¹ and 1.4e+08 M⁻¹ | 0.0012 s⁻¹ and 0.0021 s⁻¹ | 300000 M⁻¹ s⁻¹ and 260000 M⁻¹ s⁻¹ | chicken IgY-Fc fragment containing heavy chain constant domains 2, 3 and 4 (Fcυ2–4), wild type (domain or fragment)
4.5e+08 M⁻¹ | 0.00051 s⁻¹ | 230000 M⁻¹ s⁻¹ | chicken IgY-Fc (Fcυ2–4) R490E (domain or fragment)
7.3e+07 M⁻¹ | 0.013 s⁻¹ | 920000 M⁻¹ s⁻¹ | chicken IgY-Fc (Fcυ2–4) F557R (domain or fragment)
9.3e+06 M⁻¹ | 0.0011 s⁻¹ | 11000 M⁻¹ s⁻¹ | chicken IgY-Fc (Fcυ2–4) R556E (domain or fragment)
2e+08 M⁻¹ | 0.0021 s⁻¹ | 410000 M⁻¹ s⁻¹ | chicken IgY-Fc (Fcυ2–4) N376D (domain or fragment)
